Tested on: Escherichia coli TOP10
Assay: shrunken log2 fold change of peptide-encoding DNA abundance (4.5 h post-induction vs induction); higher = less antimicrobial activity (less host growth inhibition)
Details: time post-induction: 4.5 h; library: site-saturation at positions 5, 18, 19, 20
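Further: peptides expressed intracellularly from a pBAD plasmid library in pooled LB shake-flask culture, induced with 0.3% L-arabinose, DNA abundance read by NGS, three biological replicates, DESeq2 with apeglm shrinkage.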

With RRIRERPPRLPRPRPRPLWEPRP the “shrunken log2 fold change” value was -0.281.

RRIRRRPPRLPRPRPRPRHCPRP was tested, and the “shrunken log2 fold change” value was 0.119.

RRIRYRPPRLPRPRPRPWWYPRP was tested, and the “shrunken log2 fold change” value was -0.139.

With RRIRERPPRLPRPRPRPGGFPRP the “shrunken log2 fold change” value was 0.292.

With RRIRSRPPRLPRPRPRPEWYPRP the “shrunken log2 fold change” value was 0.341.

RRIRNRPPRLPRPRPRPLFRPRP was tested, and the “shrunken log2 fold change” value was -0.266.

For RRIRKRPPRLPRPRPRPPYNPRP, the “shrunken log2 fold change” value was -0.149.

With RRIRQRPPRLPRPRPRPMYNPRP the “shrunken log2 fold change” value was -0.545.

For RRIRMRPPRLPRPRPRPTCSPRP, the “shrunken log2 fold change” value was 0.134.

With RRIRKRPPRLPRPRPRPFMFPRP the “shrunken log2 fold change” value was -0.0278.

In the case of RRIRCRPPRLPRPRPRPAKHPRP, the “shrunken log2 fold change” value was -0.23.

For RRIRYRPPRLPRPRPRPPLSPRP, the “shrunken log2 fold change” value was -0.283.

With RRIRHRPPRLPRPRPRPKLTPRP the “shrunken log2 fold change” value was -0.0624.

For RRIRWRPPRLPRPRPRPCWNPRP, the “shrunken log2 fold change” value was 0.11.

For RRIRKRPPRLPRPRPRPVDKPRP, the “shrunken log2 fold change” value was 0.0581.

RRIRYRPPRLPRPRPRPHRNPRP was tested, and the “shrunken log2 fold change” value was -0.745.

For RRIRYRPPRLPRPRPRPTTDPRP, the “shrunken log2 fold change” value was -0.775.

In the case of RRIRIRPPRLPRPRPRPMWGPRP, the “shrunken log2 fold change” value was -0.196.

RRIRPRPPRLPRPRPRPDRLPRP was tested, and the “shrunken log2 fold change” value was 0.48.

With RRIRPRPPRLPRPRPRPRGCPRP the “shrunken log2 fold change” value was 0.251.

In the case of RRIRDRPPRLPRPRPRPPMNPRP, the “shrunken log2 fold change” value was -0.258.

RRIRIRPPRLPRPRPRPCIWPRP was tested, and the “shrunken log2 fold change” value was -0.278.

With RRIRERPPRLPRPRPRPNTMPRP the “shrunken log2 fold change” value was -0.122.

With RRIRQRPPRLPRPRPRPKDQPRP the “shrunken log2 fold change” value was 0.0983.

For RRIRLRPPRLPRPRPRPQFNPRP, the “shrunken log2 fold change” value was -0.57.

RRIRSRPPRLPRPRPRPVPTPRP was tested, and the “shrunken log2 fold change” value was 0.105.

For RRIRTRPPRLPRPRPRPFTAPRP, the “shrunken log2 fold change” value was -0.473.

RRIRHRPPRLPRPRPRPDNCPRP was tested, and the “shrunken log2 fold change” value was -0.0245.

With RRIRRRPPRLPRPRPRPFSRPRP the “shrunken log2 fold change” value was 0.18.

RRIRERPPRLPRPRPRPGRNPRP was tested, and the “shrunken log2 fold change” value was -0.237.

For RRIRCRPPRLPRPRPRPPFFPRP, the “shrunken log2 fold change” value was 0.449.

In the case of RRIRCRPPRLPRPRPRPSQPPRP, the “shrunken log2 fold change” value was 0.075.

RRIRQRPPRLPRPRPRPCGKPRP was tested, and the “shrunken log2 fold change” value was -0.116.

With RRIRERPPRLPRPRPRPISAPRP the “shrunken log2 fold change” value was -0.214.

In the case of RRIRHRPPRLPRPRPRPFKKPRP, the “shrunken log2 fold change” value was -0.00783.

In the case of RRIRNRPPRLPRPRPRPQKTPRP, the “shrunken log2 fold change” value was -0.0033.

RRIRRRPPRLPRPRPRPNWQPRP was tested, and the “shrunken log2 fold change” value was 0.00842.

For RRIRWRPPRLPRPRPRPEAKPRP, the “shrunken log2 fold change” value was 0.0319.

RRIRVRPPRLPRPRPRPLDVPRP was tested, and the “shrunken log2 fold change” value was -0.277.

In the case of RRIRTRPPRLPRPRPRPCRLPRP, the “shrunken log2 fold change” value was 0.0337.

RRIRERPPRLPRPRPRPCISPRP was tested, and the “shrunken log2 fold change” value was -0.218.

In the case of RRIRWRPPRLPRPRPRPSQLPRP, the “shrunken log2 fold change” value was -0.375.

For RRIRLRPPRLPRPRPRPLCWPRP, the “shrunken log2 fold change” value was 0.487.

In the case of RRIRSRPPRLPRPRPRPIIIPRP, the “shrunken log2 fold change” value was -0.159.

With RRIRIRPPRLPRPRPRPGCDPRP the “shrunken log2 fold change” value was 0.0474.

In the case of RRIRWRPPRLPRPRPRPEYQPRP, the “shrunken log2 fold change” value was 0.0269.

With RRIRDRPPRLPRPRPRPAVGPRP the “shrunken log2 fold change” value was 0.148.

RRIRNRPPRLPRPRPRPWYLPRP was tested, and the “shrunken log2 fold change” value was -0.0197.

With RRIRHRPPRLPRPRPRPPWLPRP the “shrunken log2 fold change” value was 0.242.

RRIRDRPPRLPRPRPRPPYMPRP was tested, and the “shrunken log2 fold change” value was -0.464.
